From patent publication US4415667A, “Carboxypeptidase a gamma and process for preparing same” (Eisai Co., Ltd., priority 1981, dated 1983)

Substrate: O=C(CNC(=O)OCc1ccccc1)N[C@@H](Cc1ccccc1)C(=O)O
Test: Michaelis constant and maximum reaction velocity, hydrolysis of Nα-carbobenzoxyglycyl-L-phenylalanine (ninhydrin method)
Assay type: biochemical, porcine
Settings: other: substrate concentration varied from 0.02 to 0.1 M; 25.0 °C
Method: The enzyme activity of the enzyme of the invention for Nα-carbobenzoxyglycyl-L-phenylalanine substrate was investigated by the ninhydrin method. […] After the combined solutions stood at 25° C. for 5 minutes, 0.2 ml of an enzyme solution was added, and the solution was incubated at 25° C. for 15 minutes. The reaction was stopped by adding 1 ml of a 3 M acetate buffer solution (pH 5.0) in an ice bath. The ninhydrin reagent was added to effect color development according to the Yemn & Cocking method. The enzyme activity for a casein substrate was investigated by the Kunitz method. Enzyme activities of the enzyme of the invention for benzoylglycyl-L-arginine and elastin were also investigated by the respective methods above. Enzyme activity was observed only for Nα-carbobenzoxyglycyl-L-phenylalanine and casein.
(9) Michaelis constant and maximum reaction velocity

B1: porcine pancreas carboxypeptidase Aγ (new species, obtained in Example 1; NH2-terminal sequence beginning with Asn) (Sus scrofa) (protein)
chain: NYATYHTLEEIYDFMDILVAEHPQLVSKLQIGSSYEGRPIYVLKFSTGGNNRPAIWIDTGIHSREWVTQASGVWFAKKITEDYGQDPAFTAILDNLDIFLEIVTNPDGFAFTHSENRMWRKTRSRTSGSFCVGVDPNRNWDAGFGGAGASSNPCSETYHGKFPNSEVEVKSIVDFVNDHGNIKAFISIHSYSQLLLYPYGYKTEAPADKDELDQISKSAVAALTSLYGTKFQYGSIITTIYQASGGTIDWTYNQGIKYSFSFELRDTGRYGFLLPASQIIPTAQETWLALLTIMEHTLNHPY
notes: from tissue; host or cells: porcine pancreas (from the unit heads)
For B1, the Km was 20 mM and the Vmax was 235.5 µmol/min/mg.
